Data taken from publication PMC4397538 (2015).

Molecular target: T1, Biotin-BH4-Bcl-XL (Homo sapiens (Human), UniProt Q07817, biotin on the N-terminus (also used without the biotin tag))
T1 chain: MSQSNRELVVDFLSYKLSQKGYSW
Assay: SPR

binding result: no binding
B1: GST-tagged IP3R1 domain 3 (mouse IP3R1, a.a. 923-1581) (protein)
chain: SIHGVGELMTQVVLRGGGFLPMTPMAAAPEGNVKQAEPEKEDIMVMDTKLKIIEILQFILNVRLDYRISCLLCIFKREFDESNSQSSETSSGNSSQEGPSNVPGALDFEHIEEQAEGIFGGSEENTPLDLDDHGGRTFLRVLLHLTMHDYPPLVSGALQLLFRHFSQRQEVLQAFKQVQLLVTSQDVDNYKQIKQDLDQLRSIVEKSELWVYKGQGPDEPMDGASGENEHKKTEEGTSKPLKHESTSSYNYRVVKEILIRLSKLCVQESASVRKSRKQQQRLLRNMGAHAVVLELLQIPYEKAEDTKMQEIMRLAHEFLQNFCAGNQQNQALLHKHINLFLNPGILEAVTMQHIFMNNFQLCSEINERVVQHFVHCIETHGRNVQYIKFLQTIVKAEGKFIKKCQDMVMAELVNSGEDVLVFYNDRASFQTLIQMMRSERDRMDENSPLMYHIHLVELLAVCTEGKNVYTEIKCNSLLPLDDIVRVVTHEDCIPEVKIAYINFLNHCYVDTEVEMKEIYTSNHMWKLFENFLVDICRACNNTSDRKHADSILEKYVTEIVMSIVTTFFSSPFSDQSTTLQTRQPVFVQLLQGVFRVYHCNWLMPSQKASVESCIRVLSDVAKSRAIAIPVDLDSQVNNLFLKSHNIVQKTALNWRLSAR
